Test results published in patent US20260209362A1 (VIB VZW, published 2026).

Columns and labels:
[1] = target: T1, biotinylated mouse recombinant IL-12Rβ2 (produced in-house) (mouse, UniProt P97378 24-637, random biotinylated); test: ELISA, periplasmic extract on biotinylated mouse IL-12Rβ2
T1 construct: Soluble recombinant protein used for panning, ELISA and BLI; also called mIL-12RB2; mIL12RB2
T1 sequence: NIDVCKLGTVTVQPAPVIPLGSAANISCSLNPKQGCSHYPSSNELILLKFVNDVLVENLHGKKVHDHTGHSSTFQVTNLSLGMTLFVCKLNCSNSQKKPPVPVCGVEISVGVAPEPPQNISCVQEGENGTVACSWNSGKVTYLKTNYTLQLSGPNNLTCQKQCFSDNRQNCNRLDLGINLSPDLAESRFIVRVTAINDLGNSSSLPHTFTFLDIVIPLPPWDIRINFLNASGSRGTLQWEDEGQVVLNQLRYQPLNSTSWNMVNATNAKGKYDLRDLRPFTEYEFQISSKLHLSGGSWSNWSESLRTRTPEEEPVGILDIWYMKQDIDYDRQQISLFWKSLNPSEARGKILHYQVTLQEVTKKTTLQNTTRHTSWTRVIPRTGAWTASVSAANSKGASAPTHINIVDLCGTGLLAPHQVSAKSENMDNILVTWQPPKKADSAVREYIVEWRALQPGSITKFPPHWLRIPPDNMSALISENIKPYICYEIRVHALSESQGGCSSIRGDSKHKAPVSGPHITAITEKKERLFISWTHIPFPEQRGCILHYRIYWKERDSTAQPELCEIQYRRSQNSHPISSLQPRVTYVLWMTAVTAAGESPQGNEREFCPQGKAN

[2] = target: T2, biotinylated human recombinant IL-12Rβ2 (produced in-house) (human, UniProt Q99665 24-622, random biotinylated); test: BLI (Octet Red), periplasmic extract on biotinylated human IL-12Rβ2 on streptavidin tips, 1:1 model
T2 construct: Soluble recombinant protein used for panning, ELISA and BLI; also called hIL-12RB2; hIL12RB2
T2 sequence: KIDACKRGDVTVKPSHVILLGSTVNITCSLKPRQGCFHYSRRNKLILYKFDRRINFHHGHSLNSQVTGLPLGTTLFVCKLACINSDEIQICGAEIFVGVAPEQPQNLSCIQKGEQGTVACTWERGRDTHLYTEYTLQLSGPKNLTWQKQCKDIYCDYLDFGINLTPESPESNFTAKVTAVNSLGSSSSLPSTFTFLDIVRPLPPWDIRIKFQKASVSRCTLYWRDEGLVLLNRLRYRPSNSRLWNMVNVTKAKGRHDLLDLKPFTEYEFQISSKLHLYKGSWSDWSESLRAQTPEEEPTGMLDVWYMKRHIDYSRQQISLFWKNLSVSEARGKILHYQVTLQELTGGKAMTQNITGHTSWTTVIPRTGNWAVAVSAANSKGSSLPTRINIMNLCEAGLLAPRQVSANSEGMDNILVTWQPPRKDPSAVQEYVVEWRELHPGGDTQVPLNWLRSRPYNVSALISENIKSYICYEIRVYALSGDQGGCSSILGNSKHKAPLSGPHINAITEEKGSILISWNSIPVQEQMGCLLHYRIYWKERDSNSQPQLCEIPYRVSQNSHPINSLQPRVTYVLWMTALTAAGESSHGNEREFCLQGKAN

[3] = target: T2, biotinylated human recombinant IL-12Rβ2 …; test: BLI (Octet Red), periplasmic extract on biotinylated human IL-12Rβ2 on streptavidin tips
[4] = target: T1, biotinylated mouse recombinant IL-12Rβ2 …; test: ELISA, periplasmic extract on biotinylated mouse IL-12Rβ2; signal over streptavidin control well
[5] = target: T3, human IL-12Rβ2 expressed on cells (human, UniProt Q99665 24-862); test: flow cytometry, periplasmic extract VHH-HA on HEK293T cells transiently expressing human IL-12Rβ2
T3 construct: the cell lines are described by plasmid or cDNA number only; also called hIL-12RB2; HEK293T transiently transfected with human IL-12Rβ2
T3 sequence: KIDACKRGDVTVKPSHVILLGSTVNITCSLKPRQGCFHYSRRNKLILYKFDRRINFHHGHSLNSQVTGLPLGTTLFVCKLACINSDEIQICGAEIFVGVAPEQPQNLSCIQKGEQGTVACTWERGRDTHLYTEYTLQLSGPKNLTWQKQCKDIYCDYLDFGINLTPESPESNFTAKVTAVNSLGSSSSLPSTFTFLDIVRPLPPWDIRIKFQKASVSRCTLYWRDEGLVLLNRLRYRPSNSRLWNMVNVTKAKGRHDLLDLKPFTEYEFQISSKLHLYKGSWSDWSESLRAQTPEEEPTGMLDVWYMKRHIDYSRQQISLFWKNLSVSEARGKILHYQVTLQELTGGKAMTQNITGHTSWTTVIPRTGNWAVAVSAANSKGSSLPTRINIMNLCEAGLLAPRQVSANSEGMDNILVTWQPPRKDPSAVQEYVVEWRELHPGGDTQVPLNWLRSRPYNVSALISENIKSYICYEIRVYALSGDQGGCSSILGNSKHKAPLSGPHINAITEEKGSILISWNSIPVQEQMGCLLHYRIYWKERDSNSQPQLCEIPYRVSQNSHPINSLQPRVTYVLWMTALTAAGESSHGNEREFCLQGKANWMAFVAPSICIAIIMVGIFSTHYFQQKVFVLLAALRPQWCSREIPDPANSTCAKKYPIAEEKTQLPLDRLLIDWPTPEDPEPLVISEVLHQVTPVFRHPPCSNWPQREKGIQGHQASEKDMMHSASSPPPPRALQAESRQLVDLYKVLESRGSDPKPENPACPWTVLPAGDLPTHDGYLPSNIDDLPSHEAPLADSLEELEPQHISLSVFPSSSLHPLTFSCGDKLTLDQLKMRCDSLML

[6] = target: T2, biotinylated human recombinant IL-12Rβ2 …; test: ELISA, periplasmic extract on biotinylated human IL-12Rβ2; signal over streptavidin control well

B1: anti-IL-12Rβ2 VHH clone 3CRH25 (clone ID 20378) (VHH)
VHH: QVQLQESGGGLVQAGDSLRLSCTASGHTFSRYTTIGWFRQAPGKDREFVAAIRWSGDITDYADAVKGRFTISRDNVKNTVYLQMNSLNPEDTAVYYCARGYSEYGVLSRNRGLYAYWGQGTQVTVSS
notes: Tested as periplasmic extract; not shown: C-terminal HA tag
[1]
  binding result: no binding
[2]
  koff: 0.00205 s⁻¹
[3]
  Response: 0.523
[4]
  mIL12RB2/control (ELISA): 1.04 ratio
[5]
  % cells bound: 34.8%
  dMFI: 520
[6]
  hIL12RB2/control (ELISA): 5.16 ratio

B2: anti-IL-12Rβ2 VHH clone 3CAHS142 (clone ID 20401) (VHH)
VHH: QVQLQESGGGLVQAGESLTLSCIASGVIKDYAMGWFRQAPGKEREFVAAISWSGVSIYYADSVKGRFTISRDNAKNTVYLQMNSLEPEDTAVYYCAGTEGAYTVAGGSTFGYDMDYWGKGTQVTVSS
notes: as for B1
[1]
  binding result: no binding
[2]
  koff: 0.00324 s⁻¹
[3]
  Response: 0.352
[4]
  mIL12RB2/control (ELISA): 1.07 ratio
[5]
  % cells bound: 40.9%
  dMFI: 812
[6]
  hIL12RB2/control (ELISA): 4.98 ratio

B3: anti-IL-12Rβ2 VHH clone 3CAHS171 (clone ID 20407) (VHH)
VHH: QVQLQESGGGLVQPGGSLRLTCVASGFPFSTHAMSWVRQPPGKGREWISAINSGGDSTDYADSVMGRFTISRDNAKNTVYLQMNSLKSEDTAAYYCAKYEDCSDYDCSSRASWGQGTQVTVSS
notes: as for B1
[1]
  binding result: no binding
[2]
  koff: 0.00431 s⁻¹
[3]
  Response: 0.195
[4]
  mIL12RB2/control (ELISA): 0.96 ratio
[5]
  % cells bound: 47.5%
  dMFI: 1180
[6]
  hIL12RB2/control (ELISA): 3.27 ratio

B4: anti-IL-12Rβ2 VHH clone 3CRHS163 (clone ID 20438) (VHH)
VHH: QVQLQESGGGLVQPGGSLRLSCTASGFAFSTYWMYWIRQSPEKGFEWVSVVNTGGDITYYADSVKGRFTISRDNAKNTLYLQMNSLKPEDTALYYCARDRTTMSYTRTYYRGGQGTQVTVSS
notes: Tested as periplasmic extract; also called 3CANS142; not shown: C-terminal HA tag
[1]
  binding result: no binding
[2]
  koff: 0.00302 s⁻¹
[3]
  Response: 0.339
[4]
  mIL12RB2/control (ELISA): 0.93 ratio
[5]
  % cells bound: 43.7%
  dMFI: 1050
[6]
  hIL12RB2/control (ELISA): 3.58 ratio

B5: anti-IL-12Rβ2 VHH clone 3CAHS124 (clone ID 20400) (VHH)
VHH: QVQLQESGGGLVQPGGSLRLSCAASGRTINAYIMGWFRQAPGKEREFVAAVSGSGGSTYYADSVKGRFTISRDNAKNTVNLQMDNLRSEDTDVYYCAATYESVYLQNPGQYDYWGQGTQVTVSS
notes: as for B1
[1]
  binding result: no binding
[2]
  koff: 0.00324 s⁻¹
[3]
  Response: 0.293
[4]
  mIL12RB2/control (ELISA): 1 ratio
[5]
  % cells bound: 46.3%
  dMFI: 1100
[6]
  hIL12RB2/control (ELISA): 5.67 ratio
